Data on one molecule can be found in publication doi:10.1101/2023.11.05.565221, “Evolutionary origin and structural ligand mimicry by the inserted domain of alpha-integrin proteins” (bioRxiv, 2023).

The assay deals with T1, wildtype αEβ7 ectodomain (human, UniProt P38570 19-1123; P26010 20-723, N-linked glycan at N303 (N321 in the legend of Figure 4)).
T1 construct: signal peptide in the construct; integrin alpha-E (CD103) ectodomain, M1-H1123 (limits count on the precursor); integrin beta-7 ectodomain, M1-H723 (limits count on the precursor); Wild-type αE construct 'used for integrin:e-cadherin complex'; The αEβ7 of the BLI assay is not specified; also called integrin αEβ7; source: ExpiCHO cells, α and β co-transfected, secreted, purified (HisTrap, SEC)
T1 sequence (P38570 19-1123, chain 1 of 2): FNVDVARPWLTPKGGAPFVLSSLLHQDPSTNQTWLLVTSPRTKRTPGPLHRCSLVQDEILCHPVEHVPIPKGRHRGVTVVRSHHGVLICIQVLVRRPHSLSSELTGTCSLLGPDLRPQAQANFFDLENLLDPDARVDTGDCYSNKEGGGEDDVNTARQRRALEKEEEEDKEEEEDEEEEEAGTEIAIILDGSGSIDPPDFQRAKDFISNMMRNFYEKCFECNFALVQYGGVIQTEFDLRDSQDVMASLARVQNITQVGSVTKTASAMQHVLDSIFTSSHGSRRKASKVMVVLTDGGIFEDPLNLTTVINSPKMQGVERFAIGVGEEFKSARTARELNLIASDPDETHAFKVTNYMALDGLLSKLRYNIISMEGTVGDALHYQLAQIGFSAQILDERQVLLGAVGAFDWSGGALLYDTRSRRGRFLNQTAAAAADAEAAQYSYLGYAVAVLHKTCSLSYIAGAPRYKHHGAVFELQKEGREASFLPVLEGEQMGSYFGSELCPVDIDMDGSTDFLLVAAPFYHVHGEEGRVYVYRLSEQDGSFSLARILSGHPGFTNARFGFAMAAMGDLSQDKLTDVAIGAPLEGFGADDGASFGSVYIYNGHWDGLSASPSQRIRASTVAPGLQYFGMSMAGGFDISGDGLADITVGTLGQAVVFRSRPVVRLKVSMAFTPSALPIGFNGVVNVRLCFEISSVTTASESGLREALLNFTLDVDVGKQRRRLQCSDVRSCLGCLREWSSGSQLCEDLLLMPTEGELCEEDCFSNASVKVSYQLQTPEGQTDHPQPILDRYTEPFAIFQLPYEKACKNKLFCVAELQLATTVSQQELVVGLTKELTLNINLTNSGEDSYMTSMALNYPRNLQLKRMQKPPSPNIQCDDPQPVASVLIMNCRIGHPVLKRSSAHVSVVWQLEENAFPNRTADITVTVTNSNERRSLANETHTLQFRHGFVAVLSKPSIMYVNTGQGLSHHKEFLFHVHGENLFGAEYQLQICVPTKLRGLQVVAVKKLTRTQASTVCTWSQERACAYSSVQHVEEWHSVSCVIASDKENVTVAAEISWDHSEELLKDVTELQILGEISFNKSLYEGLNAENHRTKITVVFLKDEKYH
T1 sequence (P26010 20-723, chain 2 of 2): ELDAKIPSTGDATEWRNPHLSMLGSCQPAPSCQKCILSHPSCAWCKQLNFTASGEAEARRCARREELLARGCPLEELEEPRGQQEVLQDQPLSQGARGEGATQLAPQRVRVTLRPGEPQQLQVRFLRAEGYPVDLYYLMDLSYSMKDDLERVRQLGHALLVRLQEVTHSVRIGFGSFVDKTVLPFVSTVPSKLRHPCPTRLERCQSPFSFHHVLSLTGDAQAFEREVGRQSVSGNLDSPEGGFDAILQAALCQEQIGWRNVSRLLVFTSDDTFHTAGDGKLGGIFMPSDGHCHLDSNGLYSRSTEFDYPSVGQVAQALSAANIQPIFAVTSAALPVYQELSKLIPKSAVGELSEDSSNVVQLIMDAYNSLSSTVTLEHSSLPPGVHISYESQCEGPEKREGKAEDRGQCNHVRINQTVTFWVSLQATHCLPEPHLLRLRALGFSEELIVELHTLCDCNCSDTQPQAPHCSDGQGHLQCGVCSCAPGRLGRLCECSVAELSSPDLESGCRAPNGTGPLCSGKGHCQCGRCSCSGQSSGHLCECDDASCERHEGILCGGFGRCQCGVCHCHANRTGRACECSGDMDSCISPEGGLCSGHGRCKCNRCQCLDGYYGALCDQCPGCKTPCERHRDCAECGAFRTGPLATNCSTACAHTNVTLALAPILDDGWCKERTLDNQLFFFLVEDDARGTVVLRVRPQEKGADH
Description: BLI; Octet Red, 25°C; Fc-tagged E-cadherin ectodomain loaded on Protein A biosensors; αEβ7 500nM to 16.125nM in activating buffer with 0.1% BSA and 0.02% Tween-20; 1:1 model, global fit of three replicates. The conditions noted are these: both partners purified. (In general: BLI is a label-free optical method that tracks binding on a fibre tip over time.)

B1: Fc-tagged E-cadherin ectodomain (Fc fusion, UniProt P12830 155-698, looked up)
chain: DWVIPPISCPENEKGPFPKNLVQIKSNKDKEGKVFYSITGQGADTPPVGVFIIERETGWLKVTEPLDRERIATYTLFSHAVSSNGNAVEDPMEILITVTDQNDNKPEFTQEVFKGSVMEGALPGTSVMEVTATDADDDVNTYNAAIAYTILSQDPELPDKNMFTINRNTGVISVVTTGLDRESFPTYTLVVQAADLQGEGLSTTATAVITVTDTNDNPPIFNPTTYKGQVPENEANVVITTLKVTDADAPNTPAWEAVYTILNDDGGQFVVTTNPVNNDGILKTAKGLDFEAKQQYILHVAVTNVVPFEVSLTTSTATVTVDVLDVNEAPIFVPPEKRVEVSEDFGVGQEITSYTAQEPDTFMEQKITYRIWRDTANWLEINPDTGAISTRAELDREDFEHVKNSTYTALIIATDNGSPVATGTGTLLLILSDVNDNAPIPEPRTIFFCERNPKPQVINIIDADLPPNTSPFTAELTHGASANWTIQYNDPTQESIILKPKMALEVGDYKINLKLMDNQNKDQVTTLEVSVCDCEGAAGVCRKA
notes: E-cadherin ectodomain, D155-A698 (limits count on the precursor); Held on Protein A biosensors by the Fc; source: ExpiCHO cells, secreted, purified (HiTrap Protein G, SEC); not shown: Fc (human), C-terminal, kept
In the case of B1, the Kd (as a rule, the free concentration of one partner at which half of the binding sites on the other are occupied at equilibrium, for simple one-to-one binding) is 51 ± 7.9 nM.
